# Source: PMC2064205 (The Journal of Cell Biology, 2007)
# T1: HA3-Ard1 (human, UniProt P41227 1-235)
# T1 sequence: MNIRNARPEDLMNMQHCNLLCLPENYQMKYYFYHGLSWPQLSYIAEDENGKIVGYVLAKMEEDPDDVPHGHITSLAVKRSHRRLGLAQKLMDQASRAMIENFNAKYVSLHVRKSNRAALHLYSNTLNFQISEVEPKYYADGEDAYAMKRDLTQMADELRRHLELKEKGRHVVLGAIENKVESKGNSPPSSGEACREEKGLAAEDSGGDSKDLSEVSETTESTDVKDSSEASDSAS
# T2: HA3-San (human, UniProt Q9GZZ1 1-169)
# T2 sequence: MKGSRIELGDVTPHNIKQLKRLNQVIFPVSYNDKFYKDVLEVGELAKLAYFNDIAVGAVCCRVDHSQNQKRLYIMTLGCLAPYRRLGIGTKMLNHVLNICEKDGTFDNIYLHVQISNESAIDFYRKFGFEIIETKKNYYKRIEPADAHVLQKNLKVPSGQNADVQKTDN
# Experiments:
# HA3-Ard1 = target: T1, HA3-Ard1; assay: co-IP
# HA3-San = target: T2, HA3-San; assay: co-IP
percent of input pulled down (HA3-Ard1),percent of input pulled down (HA3-San),Binder
< 10 % of input,–,San (endogenous) (natural protein) MKGSRIELGDVTPHNIKQLKRLNQVIFPVSYNDKFYKDVLEVGELAKLAYFNDIAVGAVCCRVDHSQNQKRLYIMTLGCLAPYRRLGIGTKMLNHVLNICEKDGTFDNIYLHVQISNESAIDFYRKFGFEIIETKKNYYKRIEPADAHVLQKNLKVPSGQNADVQKTDN
–,> 10 % of input,Ard1 (endogenous) (natural protein) MNIRNARPEDLMNMQHCNLLCLPENYQMKYYFYHGLSWPQLSYIAEDENGKIVGYVLAKMEEDPDDVPHGHITSLAVKRSHRRLGLAQKLMDQASRAMIENFNAKYVSLHVRKSNRAALHLYSNTLNFQISEVEPKYYADGEDAYAMKRDLTQMADELRRHLELKEKGRHVVLGAIENKVESKGNSPPSSGEACREEKGLAAEDSGGDSKDLSEVSETTESTDVKDSSEASDSAS
–,> 10 % of input,NatH (endogenous) (natural protein) MPAVSLPPKENALFKRILRCYEHKQYRNGLKFCKQILSNPKFAEHGETLAMKGLTLNCLGKKEEAYELVRRGLRNDLKSHVCWHVYGLLQRSDKKYDEAIKCYRNALKWDKDNLQILRDLSLLQIQMRDLEGYRETRYQLLQLRPAQRASWIGYAIAYHLLEDYEMAAKILEEFRKTQQTSPDKVDYEYSELLLYQNQVLREAGLYREALEHLCTYEKQICDKLAVEETKGELLLQLCRLEDAADVYRGLQERNPENWAYYKGLEKALKPANMLERLKIYEEAWTKYPRGLVPRRLPLNFLSGEKFKECLDKFLRMNFSKGCPPVFNTLRSLYKDKEKVAIIEELVVGYETSLKSCRLFNPNDDGKEEPPTTLLWVQYYLAQHYDKIGQPSIALEYINTAIESTPTLIELFLVKAKIYKHAGNIKEAARWMDEAQALDTADRFINSKCAKYMLKANLIKEAEEMCSKFTREGTSAVENLNEMQCMWFQTECAQAYKAMNKFGEALKKCHEIERHFIEITDDQFDFHTYCMRKITLRSYVDLLKLEDVLRQHPFYFKAARIAIEIYLKLHDNPLTDENKEHEADTANMSDKELKKLRNKQRRAQKKAQIEEEKKNAEKEKQQRNQKKKKDDDDEEIGGPKEELIPEKLAKVETPLEEAIKFLTPLKNLVKNKIETHLFAFEIYFRKEKFLLMLQSVKRAFAIDSSHPWLHECMIRLFNTAVCESKDLSDTVRTVLKQEMNRLFGATNPKNFNETFLKRNSDSLPHRLSAAKMVYYLDPSSQKRAIELATTLDESLTNRNLQTCMEVLEALYDGSLGDCKEAAEIYRANCHKLFPYALAFMPPGYEEDMKITVNGDSSAEAEELANEI
